These results are taken from publication PMC8416091.

Data set [1] can be described thus: confocal imaging of Flag tag, transfected NIH-3T3 cells. As to conditions: glycan lost; control: wild-type Tlr2-Flag.
The nature of data set [2]: confocal immunofluorescence of Tlr2, RAW264.7 cells. As to conditions: control: untreated RAW264.7 cells.

B1: Tlr2: N414Q/N442Q (protein)
parent chain: MLRALWLFWILVAITVLFSKRCSAQESLSCDASGVCDGRSRSFTSIPSGLTAAMKSLDLSFNKITYIGHGDLRACANLQVLILKSSRINTIEGDAFYSLGSLEHLDLSDNHLSSLSSSWFGPLSSLKYLNLMGNPYQTLGVTSLFPNLTNLQTLRIGNVETFSEIRRIDFAGLTSLNELEIKALSLRNYQSQSLKSIRDIHHLTLHLSESAFLLEIFADILSSVRYLELRDTNLARFQFSPLPVDEVSSPMKKLAFRGSVLTDESFNELLKLLRYILELSEVEFDDCTLNGLGDFNPSESDVVSELGKVETVTIRRLHIPQFYLFYDLSTVYSLLEKVKRITVENSKVFLVPCSFSQHLKSLEFLDLSENLMVEEYLKNSACKGAWPSLQTLVLSQNHLRSMQKTGEILLTLKNLTSLDISRNTFHPMPDSCQWPEKMRFLNLSSTGIRVVKTCIPQTLEVLDVSNNNLDSFSLFLPRLQELYISRNKLKTLPDASLFPVLLVMKIRENAVSTFSKDQLGSFPKLETLEAGDNHFVCSCELLSFTMETPALAQILVDWPDSYLCDSPPRLHGHRLQDARPSVLECHQAALVSGVCCALLLLILLVGALCHHFHGLWYLRMMWAWLQAKRKPKKAPCRDVCYDAFVSYSEQDSHWVENLMVQQLENSDPPFKLCLHKRDFVPGKWIIDNIIDSIEKSHKTVFVLSENFVRSEWCKYELDFSHFRLFDENNDAAILVLLEPIERKAIPQRFCKLRKIMNTKTYLEWPLDEGQQEVFWVNLRTAIKS
With B1, the localisation_or_trafficking result in data set [1] is recorded as “decreases”.

B2: Tlr2: tunicamycin (protein)
parent chain: B1 parent chain
Take B2: in data set [2] (glycan lost), the localisation_or_trafficking result is listed as “decreases”.

B3: Tlr2: swainsonine (protein)
parent chain: B1 parent chain
B3: in data set [2] (glycan changed form), the localisation_or_trafficking entry is “changes”.

B4: Tlr2: kifunensine (protein)
parent chain: B1 parent chain
Regarding B4, the localisation_or_trafficking entry in data set [2] (glycan changed form) is “changes”.
